Usually EC50 stands for the midpoint of the concentration-response curve. A low value points to an effect from little substance.

This note sets out measurements from US20200157212A1 (Pfizer, published 2020).

T1: Human ROBO2 overexpressed on HEK293 cells (human, UniProt Q9HCK4 22-1378)
T1 construct: also called ROBO2 cells; native ROBO2
T1 sequence: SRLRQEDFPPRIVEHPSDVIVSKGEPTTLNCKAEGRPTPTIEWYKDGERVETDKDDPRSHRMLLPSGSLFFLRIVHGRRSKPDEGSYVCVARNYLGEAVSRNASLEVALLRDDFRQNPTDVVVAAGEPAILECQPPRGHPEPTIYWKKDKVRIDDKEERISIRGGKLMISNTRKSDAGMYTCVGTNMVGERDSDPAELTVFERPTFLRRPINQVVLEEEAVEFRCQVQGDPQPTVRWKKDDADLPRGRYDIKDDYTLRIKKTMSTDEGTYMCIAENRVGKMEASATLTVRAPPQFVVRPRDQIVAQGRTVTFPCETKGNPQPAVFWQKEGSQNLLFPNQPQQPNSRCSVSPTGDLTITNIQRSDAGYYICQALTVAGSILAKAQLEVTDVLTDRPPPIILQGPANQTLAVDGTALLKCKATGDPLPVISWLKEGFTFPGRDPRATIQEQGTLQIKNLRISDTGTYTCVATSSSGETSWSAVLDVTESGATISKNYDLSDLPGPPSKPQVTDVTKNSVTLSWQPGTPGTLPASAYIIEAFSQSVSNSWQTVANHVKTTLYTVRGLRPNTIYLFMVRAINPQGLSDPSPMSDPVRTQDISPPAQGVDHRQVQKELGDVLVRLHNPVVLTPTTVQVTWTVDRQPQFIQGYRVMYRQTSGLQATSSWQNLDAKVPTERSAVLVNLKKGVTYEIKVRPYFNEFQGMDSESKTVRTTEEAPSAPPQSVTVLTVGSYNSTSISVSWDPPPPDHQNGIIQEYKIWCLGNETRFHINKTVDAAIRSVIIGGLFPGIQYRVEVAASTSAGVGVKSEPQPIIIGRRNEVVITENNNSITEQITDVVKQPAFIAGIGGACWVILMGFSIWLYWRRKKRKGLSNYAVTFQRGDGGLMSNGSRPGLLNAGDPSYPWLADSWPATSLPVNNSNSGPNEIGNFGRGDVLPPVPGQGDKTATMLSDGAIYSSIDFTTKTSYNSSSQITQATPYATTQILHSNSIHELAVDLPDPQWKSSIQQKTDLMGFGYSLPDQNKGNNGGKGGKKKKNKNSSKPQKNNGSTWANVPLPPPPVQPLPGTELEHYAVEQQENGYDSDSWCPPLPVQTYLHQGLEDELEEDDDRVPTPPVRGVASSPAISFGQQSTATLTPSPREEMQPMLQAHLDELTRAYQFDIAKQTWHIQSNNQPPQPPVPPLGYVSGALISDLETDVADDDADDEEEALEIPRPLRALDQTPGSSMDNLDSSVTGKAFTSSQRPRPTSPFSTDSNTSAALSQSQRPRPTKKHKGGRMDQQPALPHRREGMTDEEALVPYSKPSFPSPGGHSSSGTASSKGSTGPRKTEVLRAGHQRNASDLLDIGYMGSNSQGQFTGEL

B1: 93H2 (antibody, human IgG1, kappa, V domains shown)
VH: EVQLVQSGAEVKKPGASVKVSCKASGYTFTGYYMHWVRQAPGQGLEWMGWINPNSGATNFPQKFQGRVTMTRDTSITTAYMDLSRLRSDDTAVYYCARESGDDAFDIWGQGTMVTVSS
VL: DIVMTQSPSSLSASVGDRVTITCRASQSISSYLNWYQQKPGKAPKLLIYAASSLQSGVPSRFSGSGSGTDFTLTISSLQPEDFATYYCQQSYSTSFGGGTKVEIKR
notes: also called parental 93H2; 93H2 mAb
B2: Abcs35 (antibody, human IgG1, kappa)
heavy: EVQLVQSGAEVKKPGASVKVSCKASGYTFTGYYMHWVRQAPGQGLEWMGWINPKNGDTEFPQKFQGRVTMTRDTSITTAYMDLSRLRSDDTAVYYCARESGDDAFDIWGQGTMVTVSSASTKGPSVFPLAPSSKSTSGGTAALGCLVKDYFPEPVTVSWNSGALTSGVHTFPAVLQSSGLYSLSSVVTVPSSSLGTQTYICNVNHKPSNTKVDKKVEPKSCDKTHTCPPCPAPEAAGAPSVFLFPPKPKDTLMISRTPEVTCVVVDVSHEDPEVKFNWYVDGVEVHNAKTKPREEQYNSTYRVVSVLTVLHQDWLNGKEYKCKVSNKALPAPIEKTISKAKGQPREPQVYTLPPSREEMTKNQVSLTCLVKGFYPSDIAVEWESNGQPENNYKTTPPVLDSDGSFFLYSKLTVDKSRWQQGNVFSCSVMHEALHNHYTQKSLSLSPGK
light: DIVMTQSPSSLSASVGDRVTITCRASQSISSYLNWYQQKPGKAPKLLIYAASSLQSGVPSRFSGSGSGTDFTLTISSLQPEDFATYYCQQSVGLFFGGGTKVEIKRTVAAPSVFIFPPSDEQLKSGTASVVCLLNNFYPREAKVQWKVDNALQSGNSQESVTEQDSKDSTYSLSSTLTLSKADYEKHKVYACEVTHQGLSSPVTKSFNRGEC
notes: fully human IgG1; VH of Ab96 with VL of Ab123
B3: Abcs25 (antibody, human IgG1, kappa, V domains shown)
VH: EVQLVQSGAEVKKPGASVKVSCKASGYTFTGYYMHWVRQAPGQGLEWMGWINPKDGDTEFPQKFQGRVTMTRDTSITTAYMDLSRLRSDDTAVYYCARESGDDAFDIWGQGTMVTVSS
VL: DIVMTQSPSSLSASVGDRVTITCRASQSISSYLNWYQQKPGKAPKLLIYAASSLQSGVPSRFSGSGSGTDFTLTISSLQPEDFATYYCQQSVGLSFGGGTKVEIKR
notes: chain-shuffled IgG

The target in this assay is T1, Human ROBO2 overexpressed on HEK293 …. The assay can be described thus: flow cytometry, HEK293 cells, average of n = 5. Here is the method: Binding of the antibodies was detected using a secondary fluorochrome conjugated anti-human IgG F(ab′)₂ antibody and samples were analyzed on a Fortessa cytometer (BD Biosciences). The fold ROBO2 selectivity was calculated as the geometric mean fluorescence intensity (Geo MFI) with ROBO2 cells/Geo MFI with ROBO1 cells. A fold change higher than 3 was considered to be ROBO2 specific (Table 2, Fold Selectivity). Some affinity matured clones had increased ROBO1 reactivity, for example Abcs 55, CTI-R2-10 and CTIR2-13.
Based upon several criteria, Abcs25 and Abcs35 were selected for further characterization. Using flow cytometry, improvement in the binding EC₅₀ to human ROBO2 relative to the parental 93H2 was evaluated. Starting at 6.7 nM, 11-point, 3-fold dilution series were made for each antibody and used to stain HEK293 overexpressing human ROBO2 as described above for the ROBO2 fold selectivity (Example 2). […] In addition to measuring improved binding to human ROBO2, it was important to ensure that high affinity binding to both cynomolgus monkey ROBO2 and rat ROBO2 was maintained. Using HEK293 cells overexpressing either cynomolgus monkey ROBO2 or rat ROBO2, the relative dose-dependent binding of 93H2, Abcs25 and Abcs35 was evaluated as described above. High affinity binding to both cynomolgus monkey and rat ROBO2 was maintained in Abcs25 and Abcs35 (Table 4). […] Briefly, Abcs35 was immobilized to 300 resonance units (RU) on a CM5 chip. Association of ROBO2 Ig1-Ig2-His (ROBO2) was measured over 5 minutes and dissociation was followed for a period of 10 minutes.
On to B1, for which a half-maximal response (EC50) required 0.133 nM.
In the case of B2, the response was half-maximal at 0.082 nM (EC50).
As for B3, a half-maximal response (EC50) required 0.068 nM.
